The target of this assay is T1, LexA BD-HRt (mouse, UniProt P0A7C2 1-202; Q61645 490-1182).
T1 construct: domain: Lex A DNA BD;range 490-1182; also called BD-HRt(mouse); Lex A DNA BD-HRt
T1 sequence (looked up): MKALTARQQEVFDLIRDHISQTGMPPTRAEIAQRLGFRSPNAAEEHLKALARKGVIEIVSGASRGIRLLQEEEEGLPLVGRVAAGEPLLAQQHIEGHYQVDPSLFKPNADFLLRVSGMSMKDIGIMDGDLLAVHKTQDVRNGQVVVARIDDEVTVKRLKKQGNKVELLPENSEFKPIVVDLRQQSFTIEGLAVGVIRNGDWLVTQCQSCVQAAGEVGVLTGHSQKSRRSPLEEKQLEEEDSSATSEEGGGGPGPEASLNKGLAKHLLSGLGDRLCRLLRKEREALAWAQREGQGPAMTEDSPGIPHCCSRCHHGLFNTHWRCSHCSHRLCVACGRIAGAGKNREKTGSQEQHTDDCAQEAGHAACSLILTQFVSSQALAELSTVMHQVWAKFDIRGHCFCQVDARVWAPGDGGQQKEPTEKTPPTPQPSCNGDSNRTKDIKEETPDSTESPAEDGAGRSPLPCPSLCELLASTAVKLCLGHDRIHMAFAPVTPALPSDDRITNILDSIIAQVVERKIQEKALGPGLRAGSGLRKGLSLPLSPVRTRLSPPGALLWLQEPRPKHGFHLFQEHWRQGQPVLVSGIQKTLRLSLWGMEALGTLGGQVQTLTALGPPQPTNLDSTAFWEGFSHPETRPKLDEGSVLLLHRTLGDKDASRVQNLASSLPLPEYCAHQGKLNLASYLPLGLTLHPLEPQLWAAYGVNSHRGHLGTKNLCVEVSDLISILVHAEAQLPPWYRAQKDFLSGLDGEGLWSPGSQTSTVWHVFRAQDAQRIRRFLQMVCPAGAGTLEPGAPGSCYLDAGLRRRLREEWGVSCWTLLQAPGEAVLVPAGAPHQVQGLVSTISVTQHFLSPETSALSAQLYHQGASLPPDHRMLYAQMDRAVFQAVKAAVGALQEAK
The assay is described as follows: yeast two-hybrid library screen; number of positive clones with this identity.

Text: Clontech Human Keratinocyte GAL4 cDNA library (complexity 2.5×10⁶) in pACT2 vector was used used to screen for HRt interacting proteins. A Leu⁻, Trp⁻ yeast strain with HIS3 and LACZ reporters for yeasts two hybrid interaction (strain L41) was first transformed with LexA BD-HRt palsmid) for Trp⁺ phenotype. The resulting L41/LexA BD-HR transformant was screened to ensure expression of LexA BD-HRt protein and also for lack of auto activation of the reporter genes HIS3 and LACZ. This strain was transformed with Keratinocyte AD-cDNA library and plated on Trp⁻Leu⁻His⁻ plate to select for clones with positive interaction. Colonies that appeared on selsctive plates were subsequently tested for LACZ expression on X-GAL plates. […] AD-plasmid was rescued from the 90 clones and retested for HRt bait dependance. […] The positive clones are expected to contain an AD-IP (interacting partner) that interacts with BD-HRt.

B1: Homo Sapiens Inner Membrane Protein, Mitochondrial (Mitofilin) (other, UniProt Q16891 1-758, looked up, not shown: large carriers)
chain: MLRACQLSGVTAAAQSCLCGKFVLRPLRPCRRYSTSGSSGLTTGKIAGAGLLFVGGGIGGTILYAKWDSHFRESVEKTIPYSDKLFEMVLGPAAYNVPLPKKSIQSGPLKISSVSEVMKESKQPASQLQKQKGDTPASATAPTEAAQIISAAGDTLSVPAPAVQPEESLKTDHPEIGEGKPTPALSEEASSSSIRERPPEEVAARLAQQEKQEQVKIESLAKSLEDALRQTASVTLQAIAAQNAAVQAVNAHSNILKAAMDNSEIAGEKKSAQWRTVEGALKERRKAVDEAADALLKAKEELEKMKSVIENAKKKEVAGAKPHITAAEGKLHNMIVDLDNVVKKVQAAQSEAKVVSQYHELVVQARDDFKRELDSITPEVLPGWKGMSVSDLADKLSTDDLNSLIAHAHRRIDQLNRELAEQKATEKQHITLALEKQKLEEKRAFDSAVAKALEHHRSEIQAEQDRKIEEVRDAMENEMRTQLRRQAAAHTDHLRDVLRVQEQELKSEFEQNLSEKLSEQELQFRRLSQEQVDNFTLDINTAYARLRGIEQAVQSHAVAEEEARKAHQLWLSVEALKYSMKTSSAETPTIPLGSAVEAIKANCSDNEFTQALTAAIPPESLTRGVYSEETLRARFYAVQKLARRVAMIDETRNSLYQYFLSYLQSLLLFPPQQLKPPPELCPEDINTFKLLSYASYCIEHGDLELAAKFVNQLKGESRRVAQDWLKEARMTLETKQIVEILTAYASAVGIGTTQVQPE
notes: Prey clone; extent of the clone unknown; also called AD-IP; BC002412
Molecule B1 had a Hits of 3.

B2: Homo Sapiens Retinoic Acid Receptor Gamma-1 (receptor, UniProt P13631 1-454, looked up, not shown: large carriers)
chain: MATNKERLFAAGALGPGSGYPGAGFPFAFPGALRGSPPFEMLSPSFRGLGQPDLPKEMASLSVETQSTSSEEMVPSSPSPPPPPRVYKPCFVCNDKSSGYHYGVSSCEGCKGFFRRSIQKNMVYTCHRDKNCIINKVTRNRCQYCRLQKCFEVGMSKEAVRNDRNKKKKEVKEEGSPDSYELSPQLEELITKVSKAHQETFPSLCQLGKYTTNSSADHRVQLDLGLWDKFSELATKCIIKIVEFAKRLPGFTGLSIADQITLLKAACLDILMLRICTRYTPEQDTMTFSDGLTLNRTQMHNAGFGPLTDLVFAFAGQLLPLEMDDTETGLLSAICLICGDRMDLEEPEKVDKLQEPLLEALRLYARRRRPSQPYMFPRMLMKITDLRGISTKGAERAITLKMEIPGPMPPLIREMLENPEMFEDDSSQPGPHPNASSEDEVPGGQGKGGLKSPA
notes: Prey clone; extent of the clone unknown; also called Human Retinoic Acid Receptor Gamma 1; AD-IP
Molecule B2 gave a Hits of 1.

B3: Homo Sapiens Insulin-like Growth Factor Binding Domain Protein 6 (other, UniProt P24592 28-240, looked up, not shown: large carriers)
chain: RCPGCGQGVQAGCPGGCVEEEDGGSPAEGCAEAEGCLRREGQECGVYTPNCAPGLQCHPPKDDEAPLRALLLGRGRCLPARAPAVAEENPKESKPQAGTARPQDVNRRDQQRNPGTSTTPSQPNSAGVQDTEMGPCRRHLDSVLQQLQTEVYRGAQTLYVPNCDHRGFYRKRQCRSSQGQRRGPCWCVDRMGKSLPGSPDGNGSSSCPTGSSG
notes: Prey clone; extent of the clone unknown; also called AD-IP
Turning to B3, the Hits came out at 1.

B4: Homo Sapiens Thyroid Hormone Receptor Alpha (receptor, UniProt P10827-2 1-410, looked up, not shown: large carriers)
chain: MEQKPSKVECGSDPEENSARSPDGKRKRKNGQCSLKTSMSGYIPSYLDKDEQCVVCGDKATGYHYRCITCEGCKGFFRRTIQKNLHPTYSCKYDSCCVIDKITRNQCQLCRFKKCIAVGMAMDLVLDDSKRVAKRKLIEQNRERRRKEEMIRSLQQRPEPTPEEWDLIHIATEAHRSTNAQGSHWKQRRKFLPDDIGQSPIVSMPDGDKVDLEAFSEFTKIITPAITRVVDFAKKLPMFSELPCEDQIILLKGCCMEIMSLRAAVRYDPESDTLTLSGEMAVKREQLKNGGLGVVSDAIFELGKSLSAFNLDDTEVALLQAVLLMSTDRSGLLCVDKIEKSQEAYLLAFEHYVNHRKHNIPHFWPKLLMKVTDLRMIGACHASRFLHMKVECPTELFPPLFLEVFEDQEV
notes: Prey clone; extent of the clone unknown; also called AD-IP; BC000261
Consider B4, for which the Hits was 7.

B5: Homo Sapiens Keratin 5 (other, UniProt P13647 1-590, looked up, not shown: large carriers)
chain: MSRQSSVSFRSGGSRSFSTASAITPSVSRTSFTSVSRSGGGGGGGFGRVSLAGACGVGGYGSRSLYNLGGSKRISISTSGGSFRNRFGAGAGGGYGFGGGAGSGFGFGGGAGGGFGLGGGAGFGGGFGGPGFPVCPPGGIQEVTVNQSLLTPLNLQIDPSIQRVRTEEREQIKTLNNKFASFIDKVRFLEQQNKVLDTKWTLLQEQGTKTVRQNLEPLFEQYINNLRRQLDSIVGERGRLDSELRNMQDLVEDFKNKYEDEINKRTTAENEFVMLKKDVDAAYMNKVELEAKVDALMDEINFMKMFFDAELSQMQTHVSDTSVVLSMDNNRNLDLDSIIAEVKAQYEEIANRSRTEAESWYQTKYEELQQTAGRHGDDLRNTKHEISEMNRMIQRLRAEIDNVKKQCANLQNAIADAEQRGELALKDARNKLAELEEALQKAKQDMARLLREYQELMNTKLALDVEIATYRKLLEGEECRLSGEGVGPVNISVVTSSVSSGYGSGSGYGGGLGGGLGGGLGGGLAGGSSGSYYSSSSGGVGLGGGLSVGGSGFSASSGRGLGVGFGSGGGSSSSVKFVSTTSSSRKSFKS
notes: Prey clone of the human keratinocyte AD-cDNA library; whole protein named, extent of the clone unknown; also called AD-IP; BC024292
Regarding B5, the Hits is 1.

B6: Homo Sapiens Protein Inhibitor of Activated STAT-3 (PIAS3) (other, UniProt Q9Y6X2 1-628, looked up, not shown: large carriers)
chain: MAELGELKHMVMSFRVSELQVLLGFAGRNKSGRKHELLAKALHLLKSSCAPSVQMKIKELYRRRFPRKTLGPSDLSLLSLPPGTSPVGSPGPLAPIPPTLLAPGTLLGPKREVDMHPPLPQPVHPDVTMKPLPFYEVYGELIRPTTLASTSSQRFEEAHFTFALTPQQVQQILTSREVLPGAKCDYTIQVQLRFCLCETSCPQEDYFPPNLFVKVNGKLCPLPGYLPPTKNGAEPKRPSRPINITPLARLSATVPNTIVVNWSSEFGRNYSLSVYLVRQLTAGTLLQKLRAKGIRNPDHSRALIKEKLTADPDSEVATTSLRVSLMCPLGKMRLTVPCRALTCAHLQSFDAALYLQMNEKKPTWTCPVCDKKAPYESLIIDGLFMEILSSCSDCDEIQFMEDGSWCPMKPKKEASEVCPPPGYGLDGLQYSPVQGGDPSENKKKVEVIDLTIESSSDEEDLPPTKKHCSVTSAAIPALPGSKGVLTSGHQPSSVLRSPAMGTLGGDFLSSLPLHEYPPAFPLGADIQGLDLFSFLQTESQHYGPSVITSLDEQDALGHFFQYRGTPSHFLGPLAPTLGSSHCSATPAPPPGRVSSIVAPGGALREGHGGPLPSGPSLTGCRSDIISLD
notes: Prey clone; extent of the clone unknown; also called AD-IP; BC030556
In turn, B6 registered a Hits of 1.

B7: Homo Sapiens Nucleoporin 160 Kda (other, UniProt Q12769 1-1436, looked up, not shown: large carriers)
chain: MLHLSAAPPAPPPEVTATARPCLCSVGRRGDGGKMAAAGALERSFVELSGAERERPRHFREFTVCSIGTANAVAGAVKYSESAGGFYYVESGKLFSVTRNRFIHWKTSGDTLELMEESLDINLLNNAIRLKFQNCSVLPGGVYVSETQNRVIILMLTNQTVHRLLLPHPSRMYRSELVVDSQMQSIFTDIGKVDFTDPCNYQLIPAVPGISPNSTASTAWLSSDGEALFALPCASGGIFVLKLPPYDIPGMVSVVELKQSSVMQRLLTGWMPTAIRGDQSPSDRPLSLAVHCVEHDAFIFALCQDHKLRMWSYKEQMCLMVADMLEYVPVKKDLRLTAGTGHKLRLAYSPTMGLYLGIYMHAPKRGQFCIFQLVSTESNRYSLDHISSLFTSQETLIDFALTSTDIWALWHDAENQTVVKYINFEHNVAGQWNPVFMQPLPEEEIVIRDDQDPREMYLQSLFTPGQFTNEALCKALQIFCRGTERNLDLSWSELKKEVTLAVENELQGSVTEYEFSQEEFRNLQQEFWCKFYACCLQYQEALSHPLALHLNPHTNMVCLLKKGYLSFLIPSSLVDHLYLLPYENLLTEDETTISDDVDIARDVICLIKCLRLIEESVTVDMSVIMEMSCYNLQSPEKAAEQILEDMITIDVENVMEDICSKLQEIRNPIHAIGLLIREMDYETEVEMEKGFNPAQPLNIRMNLTQLYGSNTAGYIVCRGVHKIASTRFLICRDLLILQQLLMRLGDAVIWGTGQLFQAQQDLLHRTAPLLLSYYLIKWGSECLATDVPLDTLESNLQHLSVLELTDSGALMANRFVSSPQTIVELFFQEVARKHIISHLFSQPKAPLSQTGLNWPEMITAITSYLLQLLWPSNPGCLFLECLMGNCQYVQLQDYIQLLHPWCQVNVGSCRFMLGRCYLVTGEGQKALECFCQAASEVGKEEFLDRLIRSEDGEIVSTPRLQYYDKVLRLLDVIGLPELVIQLATSAITEAGDDWKSQATLRTCIFKHHLDLGHNSQAYEALTQIPDSSRQLDCLRQLVVVLCERSQLQDLVEFPYVNLHNEVVGIIESRARAVDLMTHNYYELLYAFHIYRHNYRKAGTVMFEYGMRLGREVRTLRGLEKQGNCYLAALNCLRLIRPEYAWIVQPVSGAVYDRPGASPKRNHDGECTAAPTNRQIEILELEDLEKECSLARIRLTLAQHDPSAVAVAGSSSAEEMVTLLVQAGLFDTAISLCQTFKLPLTPVFEGLAFKCIKLQFGGEAAQAEAWAWLAANQLSSVITTKESSATDEAWRLLSTYLERYKVQNNLYHHCVINKLLSHGVPLPNWLINSYKKVDAAELLRLYLNYDLLEEAVDLVSEYVDAVLGKGHQYFGIEFPLSATAPMVWLPYSSIDQLLQALGENSANSHNIALSQKILDKLEDYQQKVDKATRDLLYRRTL
notes: Prey clone; extent of the clone unknown; also called Homo Sapiens Nucleoporin 160 kD (NUP160); AD-IP
Turning to B7, the Hits was 3.

B8: Homo Sapiens Annexin A1 (Lipocortin 1 or P35) (other, UniProt P04083 1-346, looked up, not shown: large carriers)
chain: MAMVSEFLKQAWFIENEEQEYVQTVKSSKGGPGSAVSPYPTFNPSSDVAALHKAIMVKGVDEATIIDILTKRNNAQRQQIKAAYLQETGKPLDETLKKALTGHLEEVVLALLKTPAQFDADELRAAMKGLGTDEDTLIEILASRTNKEIRDINRVYREELKRDLAKDITSDTSGDFRNALLSLAKGDRSEDFGVNEDLADSDARALYEAGERRKGTDVNVFNTILTTRSYPQLRRVFQKYTKYSKHDMNKVLDLELKGDIEKCLTAIVKCATSKPAFFAEKLHQAMKGVGTRHKALIRIMVSRSEIDMNDIKAFYQKMYGISLCQAILDETKGDYEKILVALCGGN
notes: Prey clone; extent of the clone unknown; also called AD-IP; BC001275
The molecule B8 had a Hits of 1.

These data come from patent US20050106141A1 (PROCTER AND GAMBLE, published 2005).
